From IntAct's records for PubMed 24910198

B1: TIMELESS-interacting protein (Homo sapiens), Q9BVW5 (parent)
chain: MLEPQENGVIDLPDYEHVEDETFPPFPPPASPERQDGEGTEPDEESGNGAPVRVPPKRTVKRNIPKLDAQRLISERGLPALRHVFDKAKFKGKGHEAEDLKMLIRHMEHWAHRLFPKLQFEDFIDRVEYLGSKKEVQTCLKRIRLDLPILHEDFVSNNDEVAENNEHDVTSTELDPFLTNLSESEMFASELSRSLTEEQQQRIERNKQLALERRQAKLLSNSQTLGNDMLMNTPRAHTVEEVNTDEDQKEESNGLNEDILDNPCNDAIANTLNEEETLLDQSFKNVQQQLDATSRNITEAR
B2: SWI/SNF-related matrix-associated actin-dependent regulator of chromatin subfamily A-like protein 1 (Homo sapiens), Q9NZC9 (parent)
chain: MSLPLTEEQRKKIEENRQKALARRAEKLLAEQHQRTSSGTSIAGNPFQAKQGPSQNFPRESCKPVSHGVIFKQQNLSSSSNADQRPHDSHSFQAKGIWKKPEEMPTACPGHSPRSQMALTGISPPLAQSPPEVPKQQLLSYELGQGHAQASPEIRFTPFANPTHKPLAKPKSSQETPAHSSGQPPRDAKLEAKTAKASPSGQNISYIHSSSESVTPRTEGRLQQKSGSSVQKGVNSQKGKCVRNGDRFQVLIGYNAELIAVFKTLPSKNYDPDTKTWNFSMNDYSALMKAAQSLPTVNLQPLEWAYGSSESPSTSSEGQAGLPSAPSLSFVKGRCMLISRAYFEADISYSQDLIALFKQMDSRRYDVKTRKWSFLLEEHSKLIAKVRCLPQVQLDPLPTTLTLAFASQLKKTSLSLTPDVPEADLSEVDPKLVSNLMPFQRAGVNFAIAKGGRLLLADDMGLGKTIQAICIAAFYRKEWPLLVVVPSSVRFTWEQAFLRWLPSLSPDCINVVVTGKDRLTAGLINIVSFDLLSKLEKQLKTPFKVVIIDESHFLKNSRTARCRAAMPVLKVAKRVILLSGTPAMSRPAELYTQIIAVKPTFFPQFHAFGLRYCDAKRMPWGWDYSGSSNLGELKLLLEEAVMLRRLKSDVLSQLPAKQRKIVVIAPGRINARTRAALDAAAKEMTTKDKTKQQQKDALILFFNRTAEAKIPSVIEYILDLLESGREKFLVFAHHKVVLDAITQELERKHVQHIRIDGSTSSAEREDLCQQFQLSERHAVAVLSITAANMGLTFSSADLVVFAELFWNPGVLIQAEDRVHRIGQTSSVGIHYLVAKGTADDYLWPLIQEKIKVLAEAGLSETNFSEMTESTDYLYKDPKQQKIYDLFQKSFEKEGSDMELLEAAESFDPGSASGTSGSSSQNMGDTLDESSLTASPQKKRRFEFFDNWDSFTSPL

Variants of: B1
Details: with rfa2_human RPA2, P15927
Target sequence in this assay (P15927 whole entry): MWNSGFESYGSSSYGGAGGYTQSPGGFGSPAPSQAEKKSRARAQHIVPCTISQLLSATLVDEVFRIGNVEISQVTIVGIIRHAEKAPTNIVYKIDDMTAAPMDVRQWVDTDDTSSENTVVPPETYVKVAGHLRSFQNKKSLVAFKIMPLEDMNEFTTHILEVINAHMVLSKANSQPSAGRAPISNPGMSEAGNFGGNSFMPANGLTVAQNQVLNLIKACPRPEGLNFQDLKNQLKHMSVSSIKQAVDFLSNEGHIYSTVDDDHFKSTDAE

effect of a mutation on the interaction | Variant
decreasing interaction | MLEPQENGVIDLPDYEHVEDETFPPFPPPASPERQDGEGTEPDEESGNGAPVRVPPKRTVKRNIPKLDAQRLISERGLPALRHVFDKAKFKGKGHEAEDLKMLIRHMEHWAHRLFPKLQFEDFIDRVEYLGSKKEVQTCLKRIRLDLPILHEDFVSNNDEVAENNEHDVTSTELDPFLTNLSESEMFASELSRSATEEQQQRIERNKQLALERRQAKLLSNSQTLGNDMLMNTPRAHTVEEVNTDEDQKEESNGLNEDILDNPCNDAIANTLNEEETLLDQSFKNVQQQLDATSRNITEAR [L195A]

Variants of: B2
Details: with rfa2_human RPA2, P15927
Target sequence in this assay (P15927 whole entry): as the sequence (P15927 whole entry) above

effect of a mutation on the interaction | Variant
decreasing interaction | K12A;I13A

Variants of: B2
Details: with rfa2_human RPA2, P15927
Remark: another data set of the same source
Target sequence in this assay (P15927 whole entry): as the sequence (P15927 whole entry) above

effect of a mutation on the interaction | Variant
decreasing interaction | Q9A

Variants of: B2
Details: with rfa2_human RPA2, P15927
Remark: another data set of the same source
Target sequence in this assay (P15927 whole entry): as the sequence (P15927 whole entry) above

effect of a mutation on the interaction | Variant
decreasing interaction | A20S;L21S

Variants of: B2
Details: with rfa2_human RPA2, P15927
Remark: another data set of the same source
Target sequence in this assay (P15927 whole entry): as the sequence (P15927 whole entry) above

effect of a mutation on the interaction | Variant
decreasing interaction | L5A

Variants of: B2
Details: with rfa2_human RPA2, P15927
Remark: another data set of the same source
Target sequence in this assay (P15927 whole entry): as the sequence (P15927 whole entry) above

effect of a mutation on the interaction | Variant
decreasing interaction | R17A;Q18A;K19A

Variants of: B2
Details: with rfa2_human RPA2, P15927
Remark: another data set of the same source

effect of a mutation on the interaction | Variant
decreasing interaction | N16A;R17A

Variants of: B2
Details: with rfa2_human RPA2, P15927
Remark: another data set of the same source

effect of a mutation on the interaction | Variant
decreasing interaction | K27A
